# T1: soluble human LIFR (leukemia inhibitory factor receptor) (human, UniProt P42702 45-833)
# T1 construct: extracellular domain; Bought; also called soluble LIFR
# T1 sequence (looked up): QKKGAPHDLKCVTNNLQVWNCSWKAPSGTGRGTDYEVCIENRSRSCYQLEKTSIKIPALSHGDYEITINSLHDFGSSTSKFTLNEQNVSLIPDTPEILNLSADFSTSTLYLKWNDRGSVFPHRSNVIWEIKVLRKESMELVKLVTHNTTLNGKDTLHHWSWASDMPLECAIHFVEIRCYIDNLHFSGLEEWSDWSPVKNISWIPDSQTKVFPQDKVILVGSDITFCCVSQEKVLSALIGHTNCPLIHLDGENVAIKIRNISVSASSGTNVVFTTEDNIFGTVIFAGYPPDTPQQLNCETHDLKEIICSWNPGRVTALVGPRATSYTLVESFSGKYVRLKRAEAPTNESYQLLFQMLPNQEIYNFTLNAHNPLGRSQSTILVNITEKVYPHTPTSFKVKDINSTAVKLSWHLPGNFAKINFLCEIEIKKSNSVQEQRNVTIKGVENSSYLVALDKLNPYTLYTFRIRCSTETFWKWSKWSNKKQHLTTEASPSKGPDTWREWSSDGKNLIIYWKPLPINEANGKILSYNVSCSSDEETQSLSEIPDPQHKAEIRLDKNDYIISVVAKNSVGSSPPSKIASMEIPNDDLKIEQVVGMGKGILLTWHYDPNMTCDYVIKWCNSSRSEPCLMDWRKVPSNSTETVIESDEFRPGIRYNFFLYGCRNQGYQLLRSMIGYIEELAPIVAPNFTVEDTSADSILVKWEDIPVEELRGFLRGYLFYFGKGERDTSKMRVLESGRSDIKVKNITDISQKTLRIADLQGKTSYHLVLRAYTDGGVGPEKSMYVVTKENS
# T2: soluble gp130 (R&D Systems # 228-GP-050/CF) (UniProt P40189 23-619, limits assumed)
# T2 construct: extracellular domain; Bought
# T2 sequence (looked up): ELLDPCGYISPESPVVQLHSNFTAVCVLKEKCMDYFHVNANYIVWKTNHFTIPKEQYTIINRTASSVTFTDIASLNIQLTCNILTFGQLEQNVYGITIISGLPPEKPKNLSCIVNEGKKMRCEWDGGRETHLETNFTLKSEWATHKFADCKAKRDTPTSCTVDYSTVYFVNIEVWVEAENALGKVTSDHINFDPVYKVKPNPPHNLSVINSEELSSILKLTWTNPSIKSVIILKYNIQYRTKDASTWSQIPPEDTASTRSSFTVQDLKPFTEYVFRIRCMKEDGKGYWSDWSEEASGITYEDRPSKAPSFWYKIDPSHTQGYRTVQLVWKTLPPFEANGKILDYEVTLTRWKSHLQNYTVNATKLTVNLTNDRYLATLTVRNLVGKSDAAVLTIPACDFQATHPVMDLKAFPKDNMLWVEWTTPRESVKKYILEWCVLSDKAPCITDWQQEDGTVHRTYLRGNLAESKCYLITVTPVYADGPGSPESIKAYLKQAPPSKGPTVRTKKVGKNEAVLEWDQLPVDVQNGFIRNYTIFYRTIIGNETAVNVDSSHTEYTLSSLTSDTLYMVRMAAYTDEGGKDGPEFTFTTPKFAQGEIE
# B1: human leukemia inhibitory factor (LIF) (ligand)
# chain: not shown
# notes: Purified recombinant protein; also called hLIF
# B2: OSM-WT ('AGA' modified human Oncostatin M, referred to as wild-type OSM) (ligand)
# chain: AAIGSCSKEYRVLLGQLQKQTDLMQDTSRLLDPYIRIQGLDVPKLREHCRERPGAFPSEETLRGLGRRGFLQTLNATLGCVLHRLADLEQRLPKAQDLERSGLNIEDLEKLQMARPNILGLRNNIYCMAQLLDNSDTAEPTKAGAGASQPPTPTPASDAFQRKLEGCRFLHGYHRFMHSVGRVFSKWGESPN
# notes: also called hOSM with AGA modification; not shown: N-terminal FLAG tag left after thrombin removal of GST
# Experiments:
# [1] = molecular target: T1, soluble human LIFR (leukemia inhibitory …); assay: SPR, ratio of KD values
# Procedure: (§1) A concentration series of soluble LIFR (# 249-LR-050/CF, R&D Systems, Minneapolis, Minn.), soluble OSMR (# 4389-OR-50, R&D Systems, Minneapolis, Minn.) or soluble gp130 (# 228-GP-050/CF, R&D Systems, Minneapolis, Minn.) in running buffer (10 mM HEPES pH 7.4, 150 mM NaCl, 3.4 mM EDTA, 0.005% Tween-20) were injected over both channels at a flow rate of 25 μl/min. Following a dissociation period of 3 minutes, the surfaces were regenerated by injecting 10 mM NaOH for 30 seconds. Rate constants for association (kₐ) and dissociation (kd) rates were derived by global analysis of the response curves fit to a 1:1 kinetic model (Equations 1 and 2) using QDat software (BioLogic Software, Ltd. Knoxville Tenn. and Nomadics, Inc. Stillwater, Okla.) using 1:1 stoichiometry.
# (§2) Reducing the size of the BC loop improves OSM's affinity towards LIFR and OSMR. […] To directly measure the binding kinetics of these ligand-receptor interactions, surface plasmon resonance (SPR) was used. The cytokines (LIF, OSM-WT, OSM-M1 and OSM-M2) were immobilized on the sensor chip surface, while recombinant soluble receptors were used as the analytes (FIG. 11).
# [2] = molecular target: T2, soluble gp130 (R&D Systems # …); assay: SPR, ratio of KD values
# Procedure: as §1, §2
Binder,fold higher affinity than towards gp130 [1],fold higher affinity than towards LIFR [2]
B1,23 fold,
B2,,2 fold
